Assay results taken from PMC8179113 (Cell, 2021).

B1: REGN10989 Fab (Fab, V domains shown)
VH: QVQLVQSGAEVKKPGASVKVSCKASGYIFTGYYMHWVRQAPGQGLEWMGWINPNSGGANYAQKFQGRVTLTRDTSITTVYMELSRLRFDDTAVYYCARGSRYDWNQNNWFDPWGQGTLVTVSS
VL: QSALTQPASVSGSPGQSITISCTGTSSDVGTYNYVSWYQQHPGKAPKLMIFDVSNRPSGVSDRFSGSKSGNTASLTISGLQAEDEADYYCSSFTTSSTVVFGGGTKLTVL
B2: REGN10985 Fab (Fab, V domains shown)
VH: EVQLVESGGGLVQPGRSLRLSCAASGFTFDDYAMHWVRQAPGKGLEWVSGISWNRGSIGYADSVKGRFTISRDNAKNSLYLQMSSLRAEDTALYYCAKDGERWDSVVVPSARNGMDVWGQGTTVTVSS
VL: QSVLTQPPSVSGAPGQRVTISCTGSSSNIGAGYDVHWYQQLPGTAPKLLIYGNSNRPSGVPDRFSGSKSGTSASLAITGLQAEDEADYYCQSYDSSLSGSYVFGTGTKVTVL

Target: SARS-CoV-2 spike receptor binding domain (SARS-CoV-2, UniProt P0DTC2)
Test: cryo-EM structure

Row | Binder | binding result
1 | B1 | binds
2 | B2 | binds
